B1: dynK694A: dominant activator dynamin mutant impaired in self-assembly (protein)
chain: MGNRGMEDLIPLVNRLQDAFSAIGQNADLDLPQIAVVGGQSAGKSSVLENFVGRDFLPRGSGIVTRRPLVLQLVNATTEYAEFLHCKGKKFTDFEEVRLEIEAETDRVTGTNKGISPVPINLRVYSPHVLNLTLVDLPGMTKVPVGDQPPDIEFQIRDMLMQFVTKENCLILAVSPANSDLANSDALKVAKEVDPQGQRTIGVITKLDLMDEGTDARDVLENKLLPLRRGYIGVVNRSQKDIDGKKDITAALAAERKFFLSHPSYRHLADRMGTPYLQKVLNQQLTNHIRDTLPGLRNKLQSQLLSIEKEVEEYKNFRPDDPARKTKALLQMVQQFAVDFEKRIEGSGDQIDTYELSGGARINRIFHERFPFELVKMEFDEKELRREISYAIKNIHGIRTGLFTPDMAFETIVKKQVKKIREPCLKCVDMVISELISTVRQCTKKLQQYPRLREEMERIVTTHIREREGRTKEQVMLLIDIELAYMNTNHEDFIGFANAQQRSNQMNKKKTSGNQDEILVIRKGWLTINNIGIMKGGSKEYWFVLTAENLSWYKDDEEKEKKYMLSVDNLKLRDVEKGFMSSKHIFALFNTEQRNVYKDYRQLELACETQEEVDSWKASFLRAGVYPERVGDKEKASETEENGSDSFMHSMDPQLERQVETIRNLVDSYMAIVNKTVRDLMPKTIMHLMINNTAEFIFSELLANLYSCGDQNTLMEESAEQAQRRDEMLRMYHALKEALSIIGDINTTTVSTPMPPPVDDSWLQVQSVPAGRRSPTSSPTPQRRAPAVPPARPGSRGPAPGPPPAGSALGGAPPVPSRPGASPDPFGPPPQVPSRPNRAPPGVPSRSGQASPSRPESPRPPFDL
B2: dynL356Q, G358V: dynamin mutant (SEQ ID NO.3) not recognized by cathepsin L; ELSGGA mutated to EQSVGA (protein, listed as Homo sapiens)
chain: MGNRGMEDLIPLVNRLQDAFSAIGQNADLDLPQIAVVGGQSAGKSSVLENFVGRDFLPRGSGIVTRRPLVLQLVNATTEYAEFLHCKGKKFTDFEEVRLEIEAETDRVTGTNKGISPVPINLRVYSPHVLNLTLVDLPGMTKVPVGDQPPDIEFQIRDMLMQFVTKENCLILAVSPANSDLANSDALKVAKEVDPQGQRTIGVITKLDLMDEGTDARDVLENKLLPLRRGYIGVVNRSQKDIDGKKDITAALAAERKFFLSHPSYRHLADRMGTPYLQKVLNQQLTNHIRDTLPGLRNKLQSQLLSIEKEVEEYKNFRPDDPARKTKALLQMVQQFAVDFEKRIEGSGDQIDTYEQSVGARINRIFHERFPFELVKMEFDEKELRREISYAIKNIHGIRTGLFTPDMAFETIVKKQVKKIREPCLKCVDMVISELISTVRQCTKKLQQYPRLREEMERIVTTHIREREGRTKEQVMLLIDIELAYMNTNHEDFIGFANAQQRSNQMNKKKTSGNQDEILVIRKGWLTINNIGIMKGGSKEYWFVLTAENLSWYKDDEEKEKKYMLSVDNLKLRDVEKGFMSSKHIFALFNTEQRNVYKDYRQLELACETQEEVDSWKASFLRAGVYPERVGDKEKASETEENGSDSFMHSMDPQLERQVETIRNLVDSYMAIVNKTVRDLMPKTIMHLMINNTKEFIFSELLANLYSCGDQNTLMEESAEQAQRRDEMLRMYHALKEALSIIGDINTTTVSTPMPPPVDDSWLQVQSVPAGRRSPTSSPTPQRRAPAVPPARPGSRGPAPGPPPAGSALGGAPPVPSRPGASPDPFGPPPQVPSRPNRAPPGVPSRSGQASPSRPESPRPPFDL
B3: dynR725A: dynamin mutant (SEQ ID NO.4) with impaired GTP hydrolysis capacity (protein, listed as Homo sapiens)
chain: MGNRGMEDLIPLVNRLQDAFSAIGQNADLDLPQIAVVGGQSAGKSSVLENFVGRDFLPRGSGIVTRRPLVLQLVNATTEYAEFLHCKGKKFTDFEEVRLEIEAETDRVTGTNKGISPVPINLRVYSPHVLNLTLVDLPGMTKVPVGDQPPDIEFQIRDMLMQFVTKENCLILAVSPANSDLANSDALKVAKEVDPQGQRTIGVITKLDLMDEGTDARDVLENKLLPLRRGYIGVVNRSQKDIDGKKDITAALAAERKFFLSHPSYRHLADRMGTPYLQKVLNQQLTNHIRDTLPGLRNKLQSQLLSIEKEVEEYKNFRPDDPARKTKALLQMVQQFAVDFEKRIEGSGDQIDTYELSGGARINRIFHERFPFELVKMEFDEKELRREISYAIKNIHGIRTGLFTPDMAFETIVKKQVKKIREPCLKCVDMVISELISTVRQCTKKLQQYPRLREEMERIVTTHIREREGRTKEQVMLLIDIELAYMNTNHEDFIGFANAQQRSNQMNKKKTSGNQDEILVIRKGWLTINNIGIMKGGSKEYWFVLTAENLSWYKDDEEKEKKYMLSVDNLKLRDVEKGFMSSKHIFALFNTEQRNVYKDYRQLELACETQEEVDSWKASFLRAGVYPERVGDKEKASETEENGSDSFMHSMDPQLERQVETIRNLVDSYMAIVNKTVRDLMPKTIMHLMINNTKEFIFSELLANLYSCGDQNTLMEESAEQAQRADEMLRMYHALKEALSIIGDINTTTVSTPMPPPVDDSWLQVQSVPAGRRSPTSSPTPQRRAPAVPPARPGSRGPAPGPPPAGSALGGAPPVPSRPGASPDPFGPPPQVPSRPNRAPPGVPSRSGQASPSRPESPRPPFDL

Assays:
[1] = system: CatL; assay: Dynamin p40 fragment in kidney extracts after gene delivery and LPS injection; assay type: in vivo, mouse; conditions: LPS injected at the time of gene delivery
Chain of CatL (P06797 114-333 limits assumed): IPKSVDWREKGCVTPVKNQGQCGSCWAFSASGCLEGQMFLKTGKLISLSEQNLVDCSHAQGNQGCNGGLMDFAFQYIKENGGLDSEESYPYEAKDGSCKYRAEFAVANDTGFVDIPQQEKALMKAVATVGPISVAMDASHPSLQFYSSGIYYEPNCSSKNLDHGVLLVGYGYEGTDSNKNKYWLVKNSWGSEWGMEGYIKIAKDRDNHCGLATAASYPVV
Text: Next the cleavage pattern of dyn1 in kidney extracts following LPS injection was examined. Kidney cytosols were probed with antibody against the GTPase domain of dynamin, which detects p40. […] Western blotting also detected a dynamin fragment of ˜55 kD. As in cultured podocytes, the presence of this fragment was LPS- and CatL-independent (FIGS. 20B, lane 5 and 20C, lanes 1 and 2), further supporting the idea that it is generated by other proteases during tissue preparation.
Four mice kidneys were homogenized in buffer containing 20 mM HEPES pH 7.5, 100 mM NaCl, 1 mM MgCl2, 1 mM PMSF, proteinase inhibitors, calpain inhibitor (Calbiochem, San Diego, Calif.) and E-64d using dounce homogenizer. Subsequently, cytosol was centrifuged for 10 min at 7000 rpm. Proteins were solubilized by 1% Triton X, 1 h at 4° C., before it was spun at 50,000 rpm for 1 h.
CatL plasmids encoding short and long CatL (Goulet et al., Biol Chem 387, 1285-1293 (2004)), Dyn1 plasmids (pcDNA-driven) or p2.5 Podocin-driven (Moeller et al., Genesis 35, 39-42 (2003)) were introduced into mice (n>10, each construct) using the TransIT in vivo gene delivery system according to the manufacturer's instruction (Mirus Bio Corporation, Madison, Wis.). 10 and 24 h after gene delivery, proteinuria was assessed by Multistix 8 SG strips (Bayer Corporation, Elkhart, Ind.), and Bradford protein assay (Sigma, Saint Louis, Mo.). From the same urines the protein creatinine ratio was determined with Albuwell M and Creatinine Companion protein creatinine ELISA kits (Exocell Inc., Philadelphia, Pa.).

[2] = system: dynamin; assay: Dynamin self-assembly, apparent affinity measured in vitro; assay type: biochemical
Text: The fact that this significant decrease in the fluorescence lifetime of ECFP is statistically insignificant is due to high fluctuations of the lifetimes between different cells (high error bar in Table 3). This is most likely due to ability of dynK694A to overcome its assembly defect under certain circumstances as shown in vitro. The fact that ECFP-dynK694A has a faster lifetime than ECFP-dynI690K is in agreement with its less severe assembly defect measured in vitro (apparent affinity of dynK694A is ˜7-fold lower then dynWT, whereas it is unmeasurable for dynI690K).

Molecule	generation of p40 in kidney extracts, in words [1]	apparent affinity for self-assembly, fold lower than dynWT [2] [fold]
dynWT: wild type dynamin overexpressed by adenovirus or delivered as dynamin 1 cDNA	generation of p40	–
B1	–	~7
B2	not generated	–
B3	did not result in generation of p40	–
